Here are results for two molecules from US20100135951A1 (UAB RESEARCH FOUNDATION, published 2010).

Assay [1] has as its target T1, cIAP1 (human, UniProt Q13490 1-618). Kind of assay: nickel bead pull-down of His-tagged DDX3 from transfected HEK293A cells, anti-cIAP1 Western blot. (Immunoblotting shows a protein as a band on a membrane.)
Procedure: (§1) The transfected cells were incubated with 500 ng/ml TRA-8 overnight.
For assay [2], the target named is T1, cIAP1. Kind of assay: TRAIL-R2 co-IP from transfected TRA-8-resistant tumor cells, Western blot with anti-DDX3 and anti-cIAP1.
Procedure: as §1
Four type cells were transfected with DDX3ΔCARD. […] Furthermore, the susceptibility of transfected cells to TRA-8-mediated apoptosis was examined using the ATPLITE assay.

T1 sequence (Q13490 whole entry): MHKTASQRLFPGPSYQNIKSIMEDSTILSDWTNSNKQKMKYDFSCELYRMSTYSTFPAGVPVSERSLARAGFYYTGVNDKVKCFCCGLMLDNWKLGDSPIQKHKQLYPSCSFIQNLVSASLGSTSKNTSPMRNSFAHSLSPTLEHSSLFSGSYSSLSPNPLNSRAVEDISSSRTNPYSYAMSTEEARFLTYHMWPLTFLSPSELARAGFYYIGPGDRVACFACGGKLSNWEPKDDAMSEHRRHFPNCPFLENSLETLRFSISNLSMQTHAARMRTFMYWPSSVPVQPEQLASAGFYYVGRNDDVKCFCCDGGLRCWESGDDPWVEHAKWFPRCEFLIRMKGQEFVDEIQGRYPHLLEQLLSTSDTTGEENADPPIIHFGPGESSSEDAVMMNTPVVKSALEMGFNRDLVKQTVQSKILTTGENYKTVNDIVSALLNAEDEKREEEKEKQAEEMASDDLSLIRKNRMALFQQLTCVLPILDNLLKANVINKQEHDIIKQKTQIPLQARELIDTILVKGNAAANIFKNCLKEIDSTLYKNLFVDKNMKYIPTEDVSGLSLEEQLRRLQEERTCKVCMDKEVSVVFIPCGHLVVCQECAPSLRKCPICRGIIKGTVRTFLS

B1: DDX3Δ101-662 (other)
chain: RSDYDGIGSRGDRSGFGKFERGGNSRWCDKSDEDDWSKPLPPSERLEQELFSGGNTGINFEKYDDIPVEATGNNCPPHIESFSDVEMGEIIMGNIELTRYTRPTPVQKHAIPIIKEKRDLMACAQTGSGKTAAFLLPILSQIYSDGPGEALRAMKENGRYGRRKQYPISLVLAPTRELAVQIYEEARKFSYRSRVRPCVVYGGADIGQQIRDLERGCHLLVATPGRLVDMMERGKIGLDFCKYLVLDEADRMLDMGFEPQIRRIVEQDTMPPKGVRHTMMFSATFPKEIQMLARDFLDEYIFLAVGRVGSTSENITQKVVWVEESDKRSFLLDLLNATGKDSLTLVFVETKKGADSLEDFLYHEGYACTSIHGDRSQRDREEALHQFRSGKSPILVATAVAARGLDISNVKHVINFDLPSDIEEYVHRIGRTGRVGNLGLATSFFNERNINITKDLLDLLVEAKQEVPSWLENMAYEHHYKGSSRGRSKSSRFSGGFGARDYRQSSGASSSSFSSSRASSSRSGGGGHGSSRGFGGGGYGGFYNSDGYGGNYNSQGVDWWGN
notes: Transfected into HEK293A cells and pulled down with nickel beads; also called the DDX3 with the first 100 aa deleted; N-terminal aa 1-aa 100 deleted DDX3; not shown: N-terminal 6-His tag of the pcDNA3.1-His vector
For the molecule B1, in the assay with cIAP1 [1], the binding result is “no binding”.

B2: DDX3ΔCARD (DDX3Δ151-662) (other)
chain: FSGGNTGINFEKYDDIPVEATGNNCPPHIESFSDVEMGEIIMGNIELTRYTRPTPVQKHAIPIIKEKRDLMACAQTGSGKTAAFLLPILSQIYSDGPGEALRAMKENGRYGRRKQYPISLVLAPTRELAVQIYEEARKFSYRSRVRPCVVYGGADIGQQIRDLERGCHLLVATPGRLVDMMERGKIGLDFCKYLVLDEADRMLDMGFEPQIRRIVEQDTMPPKGVRHTMMFSATFPKEIQMLARDFLDEYIFLAVGRVGSTSENITQKVVWVEESDKRSFLLDLLNATGKDSLTLVFVETKKGADSLEDFLYHEGYACTSIHGDRSQRDREEALHQFRSGKSPILVATAVAARGLDISNVKHVINFDLPSDIEEYVHRIGRTGRVGNLGLATSFFNERNINITKDLLDLLVEAKQEVPSWLENMAYEHHYKGSSRGRSKSSRFSGGFGARDYRQSSGASSSSFSSSRASSSRSGGGGHGSSRGFGGGGYGGFYNSDGYGGNYNSQGVDWWGN
notes: also called CARD-truncated DDX3; dominant negative mutant DDX3 lacking aa 1-150
As for B2, in the assay with cIAP1 [2], the binding result was “no binding”.
